Key:
Assay in all cases: fluorescence polarisation
[1] = molecular target: FITC-labeled PRDM14 probe peptide FITC-… (human)
[2] = molecular target: FITC-labeled NKRF probe peptide FITC-…
[3] = molecular target: SARS‐CoV‐2 NSP3 UBl1 domain (819–925), tag cleaved, for FP (SARS-CoV-2) (UniProt P0DTD1)
[4] = molecular target: FITC-labeled MBOAT1 probe peptide FITC-… (human)
[5] = molecular target: FITC-labeled NCOA2 probe peptide FITC-… (human)
[6] = molecular target: SARS‐CoV‐2 NSP9 (4141–4253), tag cleaved, for FP (SARS-CoV-2) (UniProt P0DTD1)
[7] = molecular target: SARS‐CoV‐2 NSP3 SUD‐M domain (1356–1493), tag cleaved, for FP (SARS-CoV-2) (UniProt P0DTD1)

## SARS-CoV-2 NSP3 SUD-M domain (domain or fragment)
[1]
  Kd: 23 µM

## SARS-CoV-2 non-structural protein 9 (NSP9) (natural protein)
[2]
  Kd: 15.5 µM

## wild‐type NCOA2_(1073–1088) peptide (from UniProt Q15596 1073-1088)
[3]
  Kd: 39 µM

## SARS-CoV-2 NSP3 ADRP domain (domain or fragment)
[4]
  Kd: 51 µM

## SARS-CoV-2 NSP3 UBl1 domain (domain or fragment)
[5]
  Kd: 67 µM

## wild‐type NOTCH4 peptide (synthetic)
[6]
  Kd: 72 µM

## wild‐type PRDM14 peptide (synthetic)
[7]
  Kd: 74 µM

Reference: paper PMC12102759
